# Assay results as given in US20150064179A1 (BIOTEST, published 2015).
# How the values were obtained:
# [1] = target: T1, human interleukin 10 (R&D Systems, Cat. No. 217-IL/CF) (human, UniProt P22301 19-178); assay: antigen ELISA on plate-coated hIL-10 (2 µg/ml), COS-7 supernatants adjusted to the same antibody concentration; one concentration, not given
# T1 construct: also called hIL-10; human IL-10
# Text: In brief, the expression vectors coding for the light chain and for the heavy chain were transiently cotransfected into COS-7 cells by calcium phosphate precipitation in DMEM containing 10% FCS in a 24-well format. After transfection the medium was replaced by the serum free medium CHO-S-SFM II (Invitrogen, Germany) and the supernatants of the COS-7 cells were collected 2-3 days after transfection. The antibody titer of the humanized antibodies secreted into the supernatants of transfected COS-7 cells were analyzed by a sandwich ELISA. Based on the determined antibody concentrations supernatants of all samples were adjusted to the same antibody concentrations, and all samples were used to analyze binding to human IL-10 in an antigen ELISA, whereby Maxisorb plates (Nunc, Germany) were coated with 2 μg/ml hIL-10 in PBS.
# [2] = target: T1, human interleukin 10 (R&D Systems, Cat. …); assay: SPR Biacore 2000, hIL-10 immobilised on CM-5 chip
# Experimental: (§1) Surface plasmon resonance analysis was used to measure the association and dissociation rate constants for binding of the different antibodies (murine, chimeric, 3 humanized variants) towards hIL-10 using BIACORE 2000 (Biacore AB, Uppsala, Sweden). hIL-10 was immobilized on a CM-5 sensor chip according to manufacturers conditions. hIL-10 was immobilized by adding a 50 μl aliquot of 20 μg/ml at a flow rate of 5 μl/minute resulting in an immobilization density of 320RU. The immobilized hIL-10 surface was regenerated in a two step cycle by using 0.1M carbonate buffer pH 9.2 and 0.01M HCL/1M NaCl at flow rates of 50 μl/minute for one minute each. Each antibody sample was analyzed at least 4 times in antibody concentration ranges of 20-0.15 μg/ml. Calculations from the sensograms were performed by using the BIA evaluation version 3 (1999) software.
# However, slight differences are detectable. […] Slight differences in association and dissociation rates are also detectable.
# [3] = target: T1, human interleukin 10 (R&D Systems, Cat. …); assay: SPR Biacore 2000, hIL-10 immobilised on CM-5 chip, antibody as analyte, n=5
# Experimental: as §1
# [4] = target: T2, recombinant Cynomolgus IL-10 (Cynomolgus, UniProt P79338 19-178); assay: SPR Biacore T100, BT-063 immobilised by amine coupling, rCIL-10 as analyte, assay no 1
# T2 construct: also called rCIL-10
# T2 sequence (P79338 19-178 limits assumed): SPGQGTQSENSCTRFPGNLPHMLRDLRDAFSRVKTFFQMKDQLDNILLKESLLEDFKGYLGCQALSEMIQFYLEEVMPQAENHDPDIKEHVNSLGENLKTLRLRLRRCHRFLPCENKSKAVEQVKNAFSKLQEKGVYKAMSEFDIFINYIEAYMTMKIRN
# Experimental: (§2) The affinity of the BT-63 variant 3 (hVH26/hVL7) to Cynomolgus IL-10 was analysed by additional surface plasmon resonance experiments using a Biacore T100 (Biacore AB, Uppsala, Sweden).
# (§3) BT-063 was diluted in 10 mM acetate pH5.5 to 5 μg/mL and immobilized using amine coupling procedure to obtain a final level of about 1000 RU. Regeneration of the sensor chip surface was obtained injecting 10 mM Glycine-HCl pH 1.8 for 30 s. Samples were injected in different concentrations over the flow cell as well as over the reference cell. Signals obtained by the reference cell were subtracted from the signals obtained by the detector flow cell and resulting binding profiles were evaluated using a 1:1 Langmuir-binding model.
# [5] = target: T2, recombinant Cynomolgus IL-10; assay: SPR Biacore T100, BT-063 immobilised by amine coupling, rCIL-10 as analyte, assay no 2
# Experimental: as §2, §3
# [6] = target: T2, recombinant Cynomolgus IL-10; assay: SPR Biacore T100, BT-063 immobilised by amine coupling, rCIL-10 as analyte, assay no 3
# Experimental: as §2, §3
# [7] = target: T1, human interleukin 10 (R&D Systems, Cat. …); assay: SPR Biacore T100, BT-063 immobilised by amine coupling, rhIL-10 as analyte, assay no 1
# [8] = target: T2, recombinant Cynomolgus IL-10; assay: SPR Biacore T100, BT-063 immobilised by amine coupling, IL-10 as analyte, 1:1 Langmuir model, average
# Experimental: as §2, §3
# [9] = target: T1, human interleukin 10 (R&D Systems, Cat. …); assay: SPR Biacore 2000, hIL-10 immobilised on CM-5 chip, antibody as analyte, n=6
# Experimental: as §1
# [10] = target: T1, human interleukin 10 (R&D Systems, Cat. …); assay: SPR Biacore 2000, hIL-10 immobilised on CM-5 chip, antibody as analyte, n=4
# Experimental: as §1
# T1 sequence (P22301 19-178): as the sequence (P79338 19-178 limits assumed) above, with R14H, H21N, I46L, H83Q, E89A, S129N, V136I counted along it
binder,measurement,setting,value
"humanized antibody variant hVH13/hVL8 (antibody, V domains shown, human constant kappa and gamma-1; tested as COS-7 supernatant) VH: EVQLVESGGGLVQPGGSLRLSCAASGFTFSTYGVHWVRQAPGKGLEWVSVIWRGGSTDYSAAFMSRFTISRDNSKNTVYFQMNSLRAEDTAVYYCARQAYGHYMDYWGQGTLVTVSS VL: DVLMTQSPLSLPVTLGQPASISCRSSQNIVHSNGNTYLEWFQQRPGQSPRLLIYKVSNRFSGVPDRFSGSGSGTDFTLKISRVEAEDVGVYYCFQGSHVPWTFGGGTKVEIK",binding result,[1],binds
"humanized antibody variant hVH18/hVL7 (antibody, V domains shown, human constant kappa and gamma-1; tested as COS-7 supernatant) VH: EVQLVESGGGLVQPGGSLRLSCAASGFSFATYGVHWVRQSPGKGLEWLGVIWRGGSTDYSAAFMSRLTISKDNSKNTLYLQMNSLRAEDTAVYYCARQAYGHYMDYWGQGTLVTVSS VL: DVVMTQSPLSLPVTLGQPASISCRSSQNIVHSNGNTYLEWYLQRPGQSPRLLIYKVSNRFSGVPDRFSGSGSGTDFTLKISRVEAEDVGVYYCFQGSHVPWTFGQGTKVEIK",binding result,[1],binds
"humanized antibody variant hVH1/hVL7 (antibody, V domains shown, human constant kappa and gamma-1; tested as COS-7 supernatant) VH: EVQLVESGGGLVQPGGSLRLSCAASGFTFSTYGVHWVRQAPGKGLEWVSVIWRGGSTDYSAAFMSRFTISRDNSKNTLYLQMNSLRAEDTAVYYCARQAYGHYMDYWGQGTLVTVSS VL: DVVMTQSPLSLPVTLGQPASISCRSSQNIVHSNGNTYLEWYLQRPGQSPRLLIYKVSNRFSGVPDRFSGSGSGTDFTLKISRVEAEDVGVYYCFQGSHVPWTFGQGTKVEIK",binding result,[1],binds
"humanized antibody variant hVH26/hVL8 (antibody, V domains shown, human constant kappa and gamma-1; tested as COS-7 supernatant) VH: EVQLVESGGGLVQPGGSLRLSCAASGFSFATYGVHWVRQSPGKGLEWLGVIWRGGSTDYSAAFMSRLTISKDNSKNTVYLQMNSLRAEDTAVYFCAKQAYGHYMDYWGQGTSVTVSS VL: DVLMTQSPLSLPVTLGQPASISCRSSQNIVHSNGNTYLEWFQQRPGQSPRLLIYKVSNRFSGVPDRFSGSGSGTDFTLKISRVEAEDVGVYYCFQGSHVPWTFGGGTKVEIK",binding result,[1],binds
"BT-063-3 (hVH26/hVL7) (antibody, V domains shown, also called BT-63 variant 3; BT-063 (variant hVH26/hVL7)) VH: EVQLVESGGGLVQPGGSLRLSCAASGFSFATYGVHWVRQSPGKGLEWLGVIWRGGSTDYSAAFMSRLTISKDNSKNTVYLQMNSLRAEDTAVYFCAKQAYGHYMDYWGQGTSVTVSS VL: DVVMTQSPLSLPVTLGQPASISCRSSQNIVHSNGNTYLEWYLQRPGQSPRLLIYKVSNRFSGVPDRFSGSGSGTDFTLKISRVEAEDVGVYYCFQGSHVPWTFGQGTKVEIK",factor of reduced affinity compared to the murine B-N10,[2],~3 fold
same,Kd,[3],2.91 nM
same,koff,[3],0.00266 s⁻¹
same,kon,[3],1.07e+06 M⁻¹ s⁻¹
same,Kd,[4],0.196 nM
same,koff,[4],0.012 s⁻¹
same,kon,[4],6.2e+07 M⁻¹ s⁻¹
same,Kd,[5],0.195 nM
same,koff,[5],0.017 s⁻¹
same,kon,[5],8.6e+07 M⁻¹ s⁻¹
same,Kd,[6],0.191 nM
same,koff,[6],0.018 s⁻¹
same,kon,[6],9.7e+07 M⁻¹ s⁻¹
same,Kd,[7],4.6 nM
same,koff,[7],0.003 s⁻¹
same,kon,[7],600000 M⁻¹ s⁻¹
same,Kd,[8],0.194 nM
"humanized antibody variant hVH28/hVL7 (antibody, V domains shown, human constant kappa and gamma-1; tested as COS-7 supernatant) VH: EVQLVESGGGLVQPGGSLRLSCAASGFSFATYGVHWVRQSPGKGLEWLGVIWRGGSTDYSAAFMSRLTISKDNSKNTVYFQMNSLRAEDTAVYYCARQAYGHYMDYWGQGTSVTVSS VL: DVVMTQSPLSLPVTLGQPASISCRSSQNIVHSNGNTYLEWYLQRPGQSPRLLIYKVSNRFSGVPDRFSGSGSGTDFTLKISRVEAEDVGVYYCFQGSHVPWTFGQGTKVEIK",binding result,[1],binds
"humanized antibody variant hVH1/hVL8 (antibody, V domains shown, human constant kappa and gamma-1; tested as COS-7 supernatant) VH: EVQLVESGGGLVQPGGSLRLSCAASGFTFSTYGVHWVRQAPGKGLEWVSVIWRGGSTDYSAAFMSRFTISRDNSKNTLYLQMNSLRAEDTAVYYCARQAYGHYMDYWGQGTLVTVSS VL: DVLMTQSPLSLPVTLGQPASISCRSSQNIVHSNGNTYLEWFQQRPGQSPRLLIYKVSNRFSGVPDRFSGSGSGTDFTLKISRVEAEDVGVYYCFQGSHVPWTFGGGTKVEIK",binding result,[1],binds
"humanized antibody variant hVH13/hVL7 (antibody, V domains shown, human constant kappa and gamma-1; tested as COS-7 supernatant) VH: EVQLVESGGGLVQPGGSLRLSCAASGFTFSTYGVHWVRQAPGKGLEWVSVIWRGGSTDYSAAFMSRFTISRDNSKNTVYFQMNSLRAEDTAVYYCARQAYGHYMDYWGQGTLVTVSS VL: DVVMTQSPLSLPVTLGQPASISCRSSQNIVHSNGNTYLEWYLQRPGQSPRLLIYKVSNRFSGVPDRFSGSGSGTDFTLKISRVEAEDVGVYYCFQGSHVPWTFGQGTKVEIK",binding result,[1],binds
"humanized antibody variant hVH28/hVL8 (antibody, V domains shown, human constant kappa and gamma-1; tested as COS-7 supernatant) VH: EVQLVESGGGLVQPGGSLRLSCAASGFSFATYGVHWVRQSPGKGLEWLGVIWRGGSTDYSAAFMSRLTISKDNSKNTVYFQMNSLRAEDTAVYYCARQAYGHYMDYWGQGTSVTVSS VL: DVLMTQSPLSLPVTLGQPASISCRSSQNIVHSNGNTYLEWFQQRPGQSPRLLIYKVSNRFSGVPDRFSGSGSGTDFTLKISRVEAEDVGVYYCFQGSHVPWTFGGGTKVEIK",binding result,[1],binds
"humanized antibody variant hVH9/hVL7 (antibody, V domains shown, human constant kappa and gamma-1; tested as COS-7 supernatant) VH: EVQLVESGGGLVQPGGSLRLSCAASGFTFSTYGVHWVRQAPGKGLEWVSVIWRGGSTDYSAAFMSRFTISRDNSKNTLYLQMNSLRAEDTAVYFCAKQAYGHYMDYWGQGTLVTVSS VL: DVVMTQSPLSLPVTLGQPASISCRSSQNIVHSNGNTYLEWYLQRPGQSPRLLIYKVSNRFSGVPDRFSGSGSGTDFTLKISRVEAEDVGVYYCFQGSHVPWTFGQGTKVEIK",binding result,[1],binds
"BT-063-1 (hVH20/hVL7) (antibody, V domains shown, also called BT-063 variant hVH20/hVL7) VH: EVQLVESGGGLVQPGGSLRLSCAASGFSFATYGVHWVRQSPGKGLEWLGVIWRGGSTDYSAAFMSRLTISKDNSKNTVYFQMNSLRAEDTAVYFCAKQAYGHYMDYWGQGTSVTVSS VL: DVVMTQSPLSLPVTLGQPASISCRSSQNIVHSNGNTYLEWYLQRPGQSPRLLIYKVSNRFSGVPDRFSGSGSGTDFTLKISRVEAEDVGVYYCFQGSHVPWTFGQGTKVEIK",Kd,[9],1.22 nM
same,koff,[9],0.00103 s⁻¹
same,kon,[9],1.21e+06 M⁻¹ s⁻¹
"BT-063-2 (hVH20/hVL8) (antibody, V domains shown, also called BT-063 variant hVH20/hVL8) VH: EVQLVESGGGLVQPGGSLRLSCAASGFSFATYGVHWVRQSPGKGLEWLGVIWRGGSTDYSAAFMSRLTISKDNSKNTVYFQMNSLRAEDTAVYFCAKQAYGHYMDYWGQGTSVTVSS VL: DVLMTQSPLSLPVTLGQPASISCRSSQNIVHSNGNTYLEWFQQRPGQSPRLLIYKVSNRFSGVPDRFSGSGSGTDFTLKISRVEAEDVGVYYCFQGSHVPWTFGGGTKVEIK",factor of reduced affinity compared to the murine B-N10,[2],~3 fold
same,Kd,[10],2.81 nM
same,koff,[10],0.00164 s⁻¹
same,kon,[10],1.21e+06 M⁻¹ s⁻¹
"humanized antibody variant hVH18/hVL8 (antibody, V domains shown, human constant kappa and gamma-1; tested as COS-7 supernatant) VH: EVQLVESGGGLVQPGGSLRLSCAASGFSFATYGVHWVRQSPGKGLEWLGVIWRGGSTDYSAAFMSRLTISKDNSKNTLYLQMNSLRAEDTAVYYCARQAYGHYMDYWGQGTLVTVSS VL: DVLMTQSPLSLPVTLGQPASISCRSSQNIVHSNGNTYLEWFQQRPGQSPRLLIYKVSNRFSGVPDRFSGSGSGTDFTLKISRVEAEDVGVYYCFQGSHVPWTFGGGTKVEIK",binding result,[1],binds
